The results in this text go back to PMC7327521 (Journal of Molecular Biology, 2020).

Holding throughout (assay): fluorescence polarisation
Experiment [1] deals with T1, Spt6 from S. cerevisiae lacking the first unstructured 297 residues (Spt6ΔN) (S. cerevisiae, UniProt P23615 298-1451).
T1 sequence (looked up): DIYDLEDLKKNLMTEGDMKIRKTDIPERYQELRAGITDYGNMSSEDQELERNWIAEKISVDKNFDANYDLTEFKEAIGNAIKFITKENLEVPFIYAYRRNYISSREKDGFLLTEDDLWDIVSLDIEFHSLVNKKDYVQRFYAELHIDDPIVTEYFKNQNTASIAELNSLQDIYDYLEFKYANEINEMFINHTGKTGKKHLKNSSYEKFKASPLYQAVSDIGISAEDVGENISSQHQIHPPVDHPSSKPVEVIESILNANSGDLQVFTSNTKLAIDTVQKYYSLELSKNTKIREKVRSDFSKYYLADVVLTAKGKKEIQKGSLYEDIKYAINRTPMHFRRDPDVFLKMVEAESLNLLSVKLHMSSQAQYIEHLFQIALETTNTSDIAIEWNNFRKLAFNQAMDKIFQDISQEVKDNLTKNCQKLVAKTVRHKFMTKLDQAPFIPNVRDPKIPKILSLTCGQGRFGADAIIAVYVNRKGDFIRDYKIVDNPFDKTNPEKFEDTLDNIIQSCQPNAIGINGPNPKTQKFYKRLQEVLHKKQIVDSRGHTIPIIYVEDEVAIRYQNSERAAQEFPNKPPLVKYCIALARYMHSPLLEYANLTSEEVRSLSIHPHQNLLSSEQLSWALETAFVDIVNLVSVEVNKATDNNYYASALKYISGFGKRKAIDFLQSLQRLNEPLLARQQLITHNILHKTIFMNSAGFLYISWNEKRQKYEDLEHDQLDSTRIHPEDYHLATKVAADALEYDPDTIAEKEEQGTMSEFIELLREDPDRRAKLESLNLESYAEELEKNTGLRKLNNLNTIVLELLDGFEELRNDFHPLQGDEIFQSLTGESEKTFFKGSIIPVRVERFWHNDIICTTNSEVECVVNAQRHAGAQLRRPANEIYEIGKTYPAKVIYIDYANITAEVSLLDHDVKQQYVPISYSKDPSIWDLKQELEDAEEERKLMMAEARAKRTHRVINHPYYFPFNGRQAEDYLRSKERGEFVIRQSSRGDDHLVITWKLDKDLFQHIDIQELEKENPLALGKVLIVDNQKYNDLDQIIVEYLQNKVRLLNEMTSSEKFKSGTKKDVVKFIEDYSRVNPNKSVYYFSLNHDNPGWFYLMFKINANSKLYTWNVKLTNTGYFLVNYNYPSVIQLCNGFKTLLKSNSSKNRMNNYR

A further experiment concerns the target T2, Spt6-tSH2 R1281A/R1285A (C. glabrata, UniProt Q6FLB1 1250-1444, R1281A | R1285A).
T2 sequence (looked up): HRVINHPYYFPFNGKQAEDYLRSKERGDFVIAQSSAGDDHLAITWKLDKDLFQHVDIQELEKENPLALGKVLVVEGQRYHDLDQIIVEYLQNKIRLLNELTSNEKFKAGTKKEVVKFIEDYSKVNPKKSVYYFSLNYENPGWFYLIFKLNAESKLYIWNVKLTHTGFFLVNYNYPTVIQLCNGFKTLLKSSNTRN

Experiment [2] has as its target T3, Spt6-tSH2 R1281A/S1283A/R1285A (C. glabrata, UniProt Q6FLB1 1250-1444, R1281A | S1283A | R1285A).
T3 sequence (looked up): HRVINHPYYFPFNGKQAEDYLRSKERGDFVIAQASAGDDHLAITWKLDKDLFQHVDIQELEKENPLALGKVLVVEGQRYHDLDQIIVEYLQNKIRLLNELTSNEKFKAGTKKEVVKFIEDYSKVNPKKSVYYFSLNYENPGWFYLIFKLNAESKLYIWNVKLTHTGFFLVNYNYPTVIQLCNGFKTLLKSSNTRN

The next experiment concerns the target T4, Spt6-tSH2 K1360A (C. glabrata, UniProt Q6FLB1 1250-1444, K1360A).
T4 sequence (looked up): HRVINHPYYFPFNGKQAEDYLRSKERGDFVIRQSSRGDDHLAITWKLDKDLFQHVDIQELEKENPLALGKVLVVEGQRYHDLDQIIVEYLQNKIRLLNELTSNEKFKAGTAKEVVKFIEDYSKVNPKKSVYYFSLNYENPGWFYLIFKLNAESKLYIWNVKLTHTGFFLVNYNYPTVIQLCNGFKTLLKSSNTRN

The target in another experiment is T5, Spt6-tSH2 S1284A (C. glabrata, UniProt Q6FLB1 1250-1444, S1284A).
T5 sequence (looked up): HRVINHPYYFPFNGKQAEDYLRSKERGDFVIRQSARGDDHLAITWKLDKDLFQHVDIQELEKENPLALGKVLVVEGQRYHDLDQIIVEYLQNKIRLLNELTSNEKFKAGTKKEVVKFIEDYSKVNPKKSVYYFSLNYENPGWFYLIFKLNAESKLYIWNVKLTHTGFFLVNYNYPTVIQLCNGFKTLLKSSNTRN

The next experiment has as its target T6, Spt6-tSH2 R1285A (C. glabrata, UniProt Q6FLB1 1250-1444, R1285A).
T6 sequence (looked up): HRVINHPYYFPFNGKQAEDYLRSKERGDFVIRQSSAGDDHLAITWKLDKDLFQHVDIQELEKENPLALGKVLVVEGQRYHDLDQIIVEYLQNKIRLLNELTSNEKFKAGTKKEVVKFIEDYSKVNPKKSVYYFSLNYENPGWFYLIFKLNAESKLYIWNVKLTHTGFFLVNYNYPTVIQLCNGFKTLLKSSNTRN

Square brackets hold non-standard residues; d marks the D form. Ends that are not written are not given here. pY = N[C@@H](Cc1ccc(OP(=O)(O)O)cc1)C(=O)O

Consider {5,6‑FAM}-PS[pY]SPTSPS[pY]SPTSPS [(pY1-CTD)2, FAM-labelled tyrosine-phosphorylated CTD diheptad], for which the dissociation constant (Kd) turned out to be 4 ± 0.5 µM in experiment [1]; 11.6 µM in the experiment with Spt6-tSH2 R1281A/R1285A; 16.5 µM in experiment [2]; 12.4 µM with Spt6-tSH2 K1360A; 8.2 µM with Spt6-tSH2 S1284A; 12 µM in the experiment with Spt6-tSH2 R1285A.

One may read the Kd as the constant that tells how readily two partners part at equilibrium.
